According to PMC8080463:

target: HGF (UniProt P14210;P14210 32-494;495-728); test: SPR
Sequence (P14210 32-494, chain 1 of 2): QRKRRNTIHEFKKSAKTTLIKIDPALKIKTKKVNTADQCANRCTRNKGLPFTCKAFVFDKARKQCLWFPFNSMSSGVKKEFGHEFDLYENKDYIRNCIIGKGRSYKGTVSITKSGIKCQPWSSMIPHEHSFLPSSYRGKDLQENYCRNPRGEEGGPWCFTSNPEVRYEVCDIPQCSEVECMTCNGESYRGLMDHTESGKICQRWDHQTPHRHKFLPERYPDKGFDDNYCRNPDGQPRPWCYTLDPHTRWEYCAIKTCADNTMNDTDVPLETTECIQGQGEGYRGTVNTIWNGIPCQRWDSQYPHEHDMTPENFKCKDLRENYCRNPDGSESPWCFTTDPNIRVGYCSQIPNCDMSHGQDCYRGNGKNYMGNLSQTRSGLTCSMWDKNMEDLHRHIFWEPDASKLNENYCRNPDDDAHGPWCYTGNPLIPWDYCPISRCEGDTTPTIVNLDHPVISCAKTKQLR
Sequence (P14210 495-728, chain 2 of 2): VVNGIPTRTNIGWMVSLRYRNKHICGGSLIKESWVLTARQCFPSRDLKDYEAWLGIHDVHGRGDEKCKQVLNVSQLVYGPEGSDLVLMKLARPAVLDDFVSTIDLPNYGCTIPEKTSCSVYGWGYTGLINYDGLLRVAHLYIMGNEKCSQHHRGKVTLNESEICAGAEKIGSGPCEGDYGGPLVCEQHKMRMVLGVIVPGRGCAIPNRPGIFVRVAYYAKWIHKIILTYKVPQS

Row | Binder | binding result
1 | GGAATAGGGAAGGTTAGCAGG (ssDNA) [HGF-PQS2] | no binding
2 | GGGGATGGCGATGGGGAGCAGG (structured_DNA) [HGF-PQS3] | no binding

target: bFGF (UniProt P09038 143-288); test: SPR
Sequence (P09038 143-288): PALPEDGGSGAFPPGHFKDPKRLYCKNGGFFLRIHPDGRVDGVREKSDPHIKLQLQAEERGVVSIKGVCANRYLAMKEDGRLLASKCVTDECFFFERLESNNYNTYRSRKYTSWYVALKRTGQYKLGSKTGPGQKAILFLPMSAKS

Row | Binder | binding result
3 | GGGGTTGGGCGGGGGTGACTTTTGGGGGATAAGGGG (ssDNA) [bFGF-PQS1] | no binding
4 | GGGCCGGGGCCGGGGGACGG (ssDNA) [bFGF-PQS7] | no binding
5 | GGGCCGGGGGTACTGGTTTACAGG (ssDNA) [bFGF-PQS10] | no binding
6 | GGAGCGGGTCGGAGG (ssDNA) [bFGF-PQS6] | no binding
7 | GGCTGCGGCGTAGGCCCGGG (ssDNA) [bFGF-PQS9] | no binding
8 | GGGCAAGGCGGGCAGCGTGG (ssDNA) [bFGF-PQS14] | no binding
9 | GGCTCGAGGCTGGGGGACCGCGG (ssDNA) [bFGF-PQS4] | no binding
10 | GGGAGGAGGGTGCAGGCTGGAGG (ssDNA) [bFGF-PQS12] | no binding
11 | GGCCGGGCGGGAAGG (ssDNA) [bFGF-PQS13] | no binding
12 | GGTTTCTGGCCGCGCGGCCCTCGG (ssDNA) [bFGF-PQS8] | no binding
13 | GGCGAGCCGGCGGCCCGGGACCTGGG (ssDNA) [bFGF-PQS16] | no binding
14 | GGGCACGGCCCCGGCCCCGG (ssDNA) [bFGF-PQS15] | no binding
15 | GGGAGGCTGGGGGGCCGGGGCCGGGG (ssDNA) [bFGF-PQS5] | no binding
16 | GGGGGCGGGGGAGAGGCGAGGGGCGGGGGG (ssDNA) [bFGF-PQS17] | no binding
17 | GGCCGCGGCAGGGCTTTGG (ssDNA) [bFGF-PQS18] | no binding
18 | GGAAAGGAGGGGG (ssDNA) [bFGF-PQS11] | no binding
19 | GGGGGCGCGGGAGGCTGGTGGGTGTGGGGGG (ssDNA) [bFGF-PQS3] | no binding
20 | GGGGGCGGCGCGCAGGAGGGAGG (ssDNA) [bFGF-PQS2] | no binding

target: aFGF (UniProt P05230 16-155); test: SPR
Sequence (P05230 16-155): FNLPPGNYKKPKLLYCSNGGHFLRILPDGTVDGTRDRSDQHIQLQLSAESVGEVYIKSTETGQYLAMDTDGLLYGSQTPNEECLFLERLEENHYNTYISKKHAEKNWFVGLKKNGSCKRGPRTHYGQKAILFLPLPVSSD

Row | Binder | binding result
21 | GGTTGGGACTGGCGAGG (ssDNA) [aFGF-PQS8] | no binding
22 | GGAGACGGTAGGGCAAAGTGG (ssDNA) [aFGF-PQS3] | no binding
23 | GGGCTTGGCTCTGGGGATGG (ssDNA) [aFGF-PQS11] | no binding
24 | GGGAGAGGGACGGGCCGTGG (ssDNA) [aFGF-PQS6] | no binding
25 | GGTCCCAGGCCTGGGAGGG (ssDNA) [aFGF-PQS21] | no binding
26 | GGTGGGAGGAAGG (ssDNA) [aFGF-PQS23] | no binding
27 | GGCACTGGAGGAATGG (ssDNA) [aFGF-PQS5] | no binding
28 | GGTGGGTGGGTATGG (ssDNA) [aFGF-PQS4] | no binding
29 | GGCTAGAAGGTGGGGAATAAGG (ssDNA) [aFGF-PQS10] | no binding
30 | GGGCTGGAGGGGGCAGG (ssDNA) [aFGF-PQS14] | no binding
31 | GGATGGGACAAGGGACAGG (ssDNA) [aFGF-PQS22] | no binding
32 | GGCCTGCAGGACTCTGGGAGG (ssDNA) [aFGF-PQS15] | no binding
33 | GGAGAGGGTAGAGTGGGATGGG (ssDNA) [aFGF-PQS2] | no binding
34 | GGGTGGTGTGGGAGTGG (ssDNA) [aFGF-PQS12] | no binding
35 | GGGCAAAGGTCCTAGGGTGGGGG (ssDNA) [aFGF-PQS16] | no binding
36 | GGTGGAGGAAAGG (ssDNA) [aFGF-PQS19] | no binding
37 | GGGAGGTTAGGGTTGG (ssDNA) [aFGF-PQS18] | no binding
38 | GGCATGGTATCTGGAGGCAGG (ssDNA) [aFGF-PQS13] | no binding
39 | GGAAATGAGGCAGAGGGGGAGTAAGG (ssDNA) [aFGF-PQS17] | no binding
40 | GGTGGGGGGGG (ssDNA) [aFGF-PQS7] | no binding
41 | GGCCAGGACAGGGTAAGG (ssDNA) [aFGF-PQS9] | no binding
42 | GGAGAACAGGAAGGCGGGGGTGAGGG (ssDNA) [aFGF-PQS1] | no binding
43 | GGGAAGGAGGGAGGAAGGGAGGGAGGG (ssDNA) [aFGF-PQS20] | no binding

target: HB-EGF (UniProt Q99075 63-148); test: SPR
Sequence (Q99075 63-148): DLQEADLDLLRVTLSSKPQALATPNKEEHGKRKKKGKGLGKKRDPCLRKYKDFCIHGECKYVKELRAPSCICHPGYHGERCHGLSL

Row | Binder | binding result
44 | GGAGGCGGCCGG (ssDNA) [HBEGF-PQS14] | no binding
45 | GGCGGGCGGCAGACGGTGCCCGG (ssDNA) [HBEGF-PQS7] | no binding
46 | GGCGCGCGGGGTCGGGCGGCCGCGCGGG (ssDNA) [HBEGF-PQS6] | no binding
47 | GGCCGGGAATAAGGCTCCAGG (ssDNA) [HBEGF-PQS5] | no binding
48 | GGAGCGGCTTCGGAGAGG (ssDNA) [HBEGF-PQS13] | no binding
49 | GGGCGGCGGAGCTCAGG (ssDNA) [HBEGF-PQS4] | no binding
50 | GGCACGGGCCACTTGGTGGGG (ssDNA) [HBEGF-PQS10] | no binding
51 | GGTCAGGGGTCTGGGCGGG (structured_DNA) [HBEGF-PQS12] | no binding
52 | GGACGGGCGTCGGCATCGG (ssDNA) [HBEGF-PQS11] | no binding
53 | GGCGGCCACTGGGCGCTGG (ssDNA) [HBEGF-PQS3] | no binding
54 | GGGAGGGTCCGGGTTGCTGG (structured_DNA) [HBEGF-PQS1] | no binding
55 | GGAGGCGGCGAGG (structured_DNA) [HBEGF-PQS2] | no binding

target: ApoE4 (UniProt P02649 19-317, C130R); test: SPR
Sequence (P02649 19-317 C130R): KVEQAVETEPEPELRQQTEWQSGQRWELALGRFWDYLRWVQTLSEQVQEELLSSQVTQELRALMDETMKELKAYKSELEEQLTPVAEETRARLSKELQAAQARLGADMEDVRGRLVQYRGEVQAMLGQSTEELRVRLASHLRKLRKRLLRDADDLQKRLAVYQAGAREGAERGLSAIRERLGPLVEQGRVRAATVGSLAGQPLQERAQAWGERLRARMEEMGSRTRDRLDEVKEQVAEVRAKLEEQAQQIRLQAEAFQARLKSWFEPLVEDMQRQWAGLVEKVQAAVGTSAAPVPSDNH

Row | Binder | binding result | Kd
56 | GGCCCCTGGTGGAACAGGG (structured_DNA) [ApoE4-PQS3] | no binding | –
57 | GGTGGCGGAGG (structured_DNA) [ApoE4-PQS1] | – | 60 nM
58 | GGCCCGGCTGGGCGCGG (structured_DNA) [ApoE4-PQS2] | no binding | –
59 | GGAGCGGGCCCAGGCCTGGG (structured_DNA) [ApoE4-PQS4] | no binding | –
60 | GGATGGAGGAGATGGGCAGCCGG (structured_DNA) [ApoE4-PQS5] | no binding | –
61 | GGGCTGGGATGGGGCGGG (structured_DNA) [ApoE4-PQS8] | no binding | –
62 | GGCTGGTGGAGAAGGTGCAGG (structured_DNA) [ApoE4-PQS7] | no binding | –
63 | GGACGAGGTGAAGGAGCAGG (structured_DNA) [ApoE4-PQS6] | no binding | –
